According to US20100222256A1 (BIOKINE THERAPEUTICS, published 2010):
Bridges are numbered along the chain shown (N, C = ends). Where no end group is shown, it is not given here. [ ]: non-standard residue; d: D form. Cit = NC(=O)NCCC[C@H](N)C(=O)O; Nal = naphthylalanine

Biological target: CXCR4 ligand
Experiment: cell-based or functional assay

Row | Binder | EC50 (nM): anti-HIV activity, concentration where MT-4 cell death by HIV-1 (IIIB) infection is inhibited by 50% (MTT method) [nM]
1 | RRXCYXKXPYRXCR (Nal at 3; L-citrulline at 6; D-citrulline at 8; L-citrulline at 12; C-terminal amide (NH2); Cys4-Cys13 disulfide (cyclised by air oxidation)) [TC14012] | 0.4
2 | RRXCYXKXPYRXCR (Nal at 3; Cit at 6; D-Cit at 8; Cit at 12; C-terminal OH; Cys4-Cys13 disulfide (cyclised by air oxidation)) [TC14011] | 0.5
3 | RR[Nal]CY[Cit]K[dK]PYR[Cit]CR-OH (disulfide 4-13) [TC14003] | 2.8
4 | RR[Nal]CY[Cit]K[dK]PYR[Cit]CR-NH2 (disulfide 4-13) [TN14003] | 0.6
5 | XRXCYRKXPYRXCR (Cit at 1; Nal at 3; D-Cit at 8; Cit at 12; C-terminal amide (NH2); Cys4-Cys13 disulfide (cyclised by air oxidation)) [TC14018] | 1.2
6 | RRXCYRKXPYXXCR (Nal at 3; D-Cit at 8; Cit at 11 and 12; C-terminal OH as printed; Cys4-Cys13 disulfide (cyclised by air oxidation)) [TC14020] | 2.7
7 | RRXCYRKXPYRXCR (Nal at 3; D-Cit at 8; Cit at 12; C-terminal amide (NH2); Cys4-Cys13 disulfide (cyclised by air oxidation)) [TN14005] | 4.6
8 | RRXCYRKXPYRXCR (not fully specified; Nal at 3; D-citrulline at 8; L-citrulline at 12; C-terminal OH; Cys4-Cys13 disulfide (cyclised by air oxidation)) [TC14005] | 4
